According to paper PMC11964602 (Bioactive Materials, 2025):
Where no end group is shown, it is not given here.

Target: SARS-CoV-2 M^pro (Severe acute respiratory syndrome coronavirus 2, UniProt P0DTD1)
Assay: biochemical
Type: biochemical
Conditions: for M^pro inhibition (%): 100 µM

Molecule | M^pro inhibition (%) | other results
CC[C@H](C)[C@H](NC(=O)[C@H](CCC(=O)O)NC(=O)[C@H](C)NC(=O)[C@H](CCSC)NC(=O)[C@H](CC(=O)O)NC(=O)[C@@H]1CCCN1C(=O)[C@H](CCCCN)NC(=O)[C@H](CC(=O)O)NC(=O)[C@H](CO)NC(C)=O)C(=O)N[C@@H](CCC(=O)O)C(=O)N[C@@H](CCCCN)C(=O)N[C@@H](Cc1ccccc1)C(=O)N[C@@H](CC(=O)O)C(=O)N[C@@H](CCCCN)C(=O)N[C@@H](CO)C(=O)N[C@@H](CCCCN)C(=O)N[C@@H](CC(C)C)C(=O)N[C@@H](CCCCN)C(=O)N[C@@H](CCCCN)C(=O)N[C@H](C(=O)N[C@@H](CCC(=O)O)C(=O)N[C@H](C(=O)N[C@@H](CCC(N)=O)C(=O)N[C@@H](CCC(=O)O)C(=O)N[C@@H](CCCCN)C(=O)N[C@@H](CC(N)=O)C(=O)N1CCC[C@H]1C(=O)N[C@@H](CC(C)C)C(=O)N1CCC[C@H]1C(=O)N[C@@H](CO)C(=O)N[C@@H](CCCCN)C(=O)N[C@@H](CCC(=O)O)C(=O)N[C@H](C(=O)N[C@H](C(=O)N[C@@H](CCC(=O)O)C(=O)N[C@@H](CCC(N)=O)C(=O)N[C@@H](CCC(=O)O)C(=O)N[C@@H](CCCCN)C(=O)N[C@@H](CCC(N)=O)C(=O)N[C@@H](C)C(=O)NCC(=O)N[C@@H](CCC(=O)O)C(=O)N[C@@H](CO)C(=O)O)[C@@H](C)CC)[C@@H](C)O)[C@@H](C)O)[C@@H](C)O [Ac-Tβ4, Acetyl-thymosin β4] |  | inhibition at 100 µM (read-out: M^pro inhibition (%)): 7.09%; IC50 against SARS-CoV-2 M^pro (six inhibitor concentrations 100 μM–97.65 nM): no inhibition
Ac-SDKP |  | M^pro inhibition, in vitro screening of Ac-Tβ1-17 fragments (iterative N- and C-terminal fragments of Ac-Tβ1-17): less than 50%
Ac-Tβ4_1-11: peptide metabolite of Ac-Tβ4, amino acids 1-11 (Ac-SDKPDMAEIEK; UniProt P62328 2-12, looked up, fragment) | 1.25% | 
Ac-Tβ4_1-15: peptide metabolite of Ac-Tβ4, amino acids 1-15 (Ac-SDKPDMAEIEKFDKS) | 34.4% | 
Ac-Tβ4_17-43: peptide metabolite of Ac-Tβ4, amino acids 17-43 (LKKTETQEKNPLPSKETIEQEKQAGES; Thymosin beta-4; UniProt P62328 18-44, looked up, fragment) | 25.16% | 
Ac-Tβ4_31-43: peptide metabolite of Ac-Tβ4, amino acids 31-43 (KETIEQEKQAGES; Thymosin beta-4; UniProt P62328 32-44, looked up, fragment) | 1.88% | 
